# According to article PMC6891085:
# Read-outs that look alike come from different tables or passages of the source.
# Columns and labels:
# Assay in all cases: co-sedimentation
# [1] = biological target: taxol-stabilized microtubules (MTs) of porcine brain tubulin (porcine) (UniProt P02550)
# [2] = biological target: taxol-stabilized microtubules (MTs) of porcine brain tubulin (porcine) (UniProt P02550); remark: listed apart in the source
# [3] = biological target: subtilisin-treated MTs (s-MTs) (porcine) (UniProt P02550)
# Sequence of UniProt P02550 (P02550 whole entry): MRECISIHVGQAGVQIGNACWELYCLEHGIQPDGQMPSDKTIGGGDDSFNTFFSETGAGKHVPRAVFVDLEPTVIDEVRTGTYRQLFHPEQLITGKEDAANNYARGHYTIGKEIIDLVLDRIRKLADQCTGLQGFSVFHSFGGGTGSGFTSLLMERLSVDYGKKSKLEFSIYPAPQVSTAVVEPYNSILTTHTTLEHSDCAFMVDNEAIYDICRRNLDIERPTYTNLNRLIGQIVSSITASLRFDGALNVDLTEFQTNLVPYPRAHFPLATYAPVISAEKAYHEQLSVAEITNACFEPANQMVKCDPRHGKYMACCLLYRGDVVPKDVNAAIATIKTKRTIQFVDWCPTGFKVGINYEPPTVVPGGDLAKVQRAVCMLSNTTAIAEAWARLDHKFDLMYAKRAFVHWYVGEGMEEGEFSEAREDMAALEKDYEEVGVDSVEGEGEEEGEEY
Substance,Kd [1] [µM],Kd [2] [µM],Kd [3] [µM]
Abl2-557-C (from UniProt Q4JIM5 557-1182) (domain or fragment),0.7,–,–
Abl2-N-688 (from UniProt Q4JIM5 74-688) (domain or fragment),0.24,–,–
MBP-tagged Abl2 (from UniProt Q4JIM5 74-1182) (enzyme),0.21,0.36,> 3

# The next lines start with the values.
Kd [1] [µM],Kd [2] [µM],Kd [3] [µM],Substance
0.17,–,–,Abl2 with MBP cleaved off (from UniProt Q4JIM5 74-1182) (enzyme)
1.3,–,–,MBP-tagged Abl2-557-688 (from UniProt Q4JIM5 557-688) (domain or fragment)
